Results reported in EP4669352A1.
Read-outs that look alike come from different tables or passages of the source.

B1: MV33 (antibody, V domains shown)
VH: EAQLVESGGGLVHPGGSLRLSCEVSGFTFSNSWMNWVRQAPGKGLECVARIIRNADGETADYAASVRGRFTISRDDPENTLYLRMKSLKTEDTAVYYCTTVPPLSHLFFHETYYFDYWGQGVLVTVSS
VL: QAARTQSPSMSASPGQSVTISCTGTRNDIGGYNYVSWYQQYPGKAPKLMIYDVSKRPSGVSDRFSGSKSGNTASLTISGLQAEDEANYYCSSYAGSNTYVFGSGTKLTIL
B2: MV49 (antibody, V domains shown)
VH: QVQLQESGGGLVQPGGSLRLSCAASGFTFSNSWMNWVRQAPGKGPEWVARIKRKADGETADYAASVKGRFAVSRDDSKNTLYLQINSLKSEDTAVYYCTTVPPLYDLFYRGAYYFDSWGQGVLITVSS
VL: QPVLTQPPSVSGSPGQSVTISCTGTSSDIGGYKYVSWYQQHPGTAPKLMIYEVNKRPSGVSDRFSGSKSGNTASLTISGLQAEDEADYYCSAYSTSRTYIFGPGTRVTVL

How the values were obtained:
[1] = target: D8 protein (vaccinia virus)
[2] = target: D8 protein (vaccinia virus); assay: BLI (Octet)
[3] = target: D8 protein (vaccinia virus); remark: listed apart in the source

| Binder | koff [1] [s⁻¹] | Kd [2] [nM] | Kd [3] [nM] |
| --- | --- | --- | --- |
| B1 | < 1e-07 | < 0.001 | – |
| B2 | – | – | 0.011 |
